Source: EP0907730B1 (Zenyth Operations Pty Ltd, dated 2009)

Experiments:
[1] = target: T1, IL-4 receptor expressed by parental CTLL cells (UniProt P16382 26-810, limits assumed); assay: 125I-IL-13 saturation binding on parental CTLL cells
T1 construct: whole, on cells; Endogenous receptor of untransfected CTLL cells; also called IL-4 receptors expressed by CTLL cells; IL-4Rα
T1 sequence (looked up): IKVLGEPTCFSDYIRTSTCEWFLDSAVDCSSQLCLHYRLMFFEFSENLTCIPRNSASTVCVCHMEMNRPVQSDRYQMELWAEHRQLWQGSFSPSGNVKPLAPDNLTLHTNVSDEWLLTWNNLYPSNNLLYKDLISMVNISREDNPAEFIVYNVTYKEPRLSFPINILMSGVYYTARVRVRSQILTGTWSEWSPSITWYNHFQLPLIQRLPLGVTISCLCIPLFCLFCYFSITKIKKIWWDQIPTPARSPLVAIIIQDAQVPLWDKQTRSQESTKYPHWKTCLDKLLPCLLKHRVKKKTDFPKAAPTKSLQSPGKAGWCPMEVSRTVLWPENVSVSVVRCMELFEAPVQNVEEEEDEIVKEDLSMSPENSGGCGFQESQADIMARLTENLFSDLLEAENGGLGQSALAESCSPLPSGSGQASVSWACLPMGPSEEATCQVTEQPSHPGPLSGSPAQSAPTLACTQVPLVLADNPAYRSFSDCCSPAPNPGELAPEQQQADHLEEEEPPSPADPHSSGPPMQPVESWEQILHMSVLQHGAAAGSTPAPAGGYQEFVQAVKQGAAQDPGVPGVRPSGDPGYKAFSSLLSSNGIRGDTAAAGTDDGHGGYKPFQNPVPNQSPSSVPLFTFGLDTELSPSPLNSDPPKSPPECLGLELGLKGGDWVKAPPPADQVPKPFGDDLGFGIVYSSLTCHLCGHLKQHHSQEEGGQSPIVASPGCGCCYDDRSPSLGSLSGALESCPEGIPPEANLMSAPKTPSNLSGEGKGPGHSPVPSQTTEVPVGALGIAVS

[2] = target: T1, IL-4 receptor expressed by parental …; assay: 125I-IL-4 saturation binding (Scatchard) on parental CTLL cells

B1: IL-13 (obtained commercially, R & D Systems) (ligand, UniProt P20109 19-131, looked up)
chain: APGPVPRSVSLPLTLKELIEELSNITQDQTPLCNGSMVWSVDLAAGGFCVALDSLTNISNCNAIYRTQRILHGLCNRKAPTTVSSLPDTKIEVAHFITKLLSYTKQLFRHGPF
modifications: radioiodinated (125I, iodine monochloride method) where used as tracer
notes: also called interleukin-13
B1: no binding [1].

B2: IL-4 (obtained commercially, R & D Systems) (ligand, UniProt P07750 23-140, looked up)
chain: HGCDKNHLREIIGILNEVTGEGTPCTEMDVPNVLTATKNTTESELVCRASKVLRIFYLKHGKTPCLKKNSSVLMELQRLFRAFRCLDSSISCTMNESKSTSLKDFLESLKSIMQMDYS
modifications: radiolabelled with di-iodo-Bolton-Hunter reagent (125I) where used as tracer
notes: also called interleukin-4
B2 showed a Kd [2] of about 660 pM.
